Reference: patent US20030166196A1 (published 2003)

B1: chimeric H65 IgG (antibody, V domains shown)
VL: […]
VH: QIQLVQSGPELKKPGETVKISCKASGYTFTNYGMNWVKQAPGKGLRWMGWINTHTGEPTYADDFKGRFAFSLETSASTAYLQINNLKNEDTATYFCTRRGYDWYFDVWGAGTTVTVSS
notes: also called 125I-cH65 IgG
B2: he3Fab-rGelA50(C44) (other)
light: DIQMTQSPSSLSASVGDRVTITCRASQDINSYLSWFQQKPGKAPKTLIYRANRLESGVPSRFSGSGSGTDYTLTISSLQYEDFGIYYCQQYDESPWTFGGGTKLEIK
heavy: EIQLVQSGGGLVKPGGSVRISCAASGYTFTNYGMNWVRQAPGKGLEWMGWINTHTGEPTYADSFKGRFTFSLDDSKNTAYLQINSLRAEDTAVYFCTRRGYDWYFDVWGQGTTVTVSS
chain: GLDTVSFSTKGATYITYVNFLNELRVKLKPEGNSHGIPLLRKKCDDPGKAFVLVALSNDNGQLAEIAIDVTSVYVVGYQVRNRSYFFKDAPDAAYEGLFKNTIKTRLHFGGSYPSLEGEKAYRETTDLGIEPLRIGIKKLDENAIDNYKPTEIASSLLVVIQMVSEAARFTFIENQIRNNFQQRIRPANNTISLENKWGKLSFQIRTSGANGMFSEAVELERANGKKYYVTAVDQVKPKIALLKFVDKDPK
B3: he3 IgG (human-engineered H65 antibody, moderate-risk changes, ATCC HB 11206) (antibody, V domains shown)
VH: EIQLVQSGGGLVKPGGSVRISCAASGYTFTNYGMNWVRQAPGKGLEWMGWINTHTGEPTYADSFKGRFTFSLDDSKNTAYLQINSLRAEDTAVYFCTRRGYDWYFDVWGQGTTVTVSS
VL: DIQMTQSPSSLSASVGDRVTITCRASQDINSYLSWFQQKPGKAPKTLIYRANRLESGVPSRFSGSGSGTDYTLTISSLQYEDFGIYYCQQYDESPWTFGGGTKLEIK
notes: also called he3 antibody; humanized antibody

Assays:
[1] = biological target: T1, human CD5 cell differentiation marker (human, UniProt P06127 25-495); experiment: competition with 125I-cH65 IgG on Molt-4M cells
T1 construct: whole, on cells; also called CD5 antigen; human T cell determinant CD5
T1 sequence: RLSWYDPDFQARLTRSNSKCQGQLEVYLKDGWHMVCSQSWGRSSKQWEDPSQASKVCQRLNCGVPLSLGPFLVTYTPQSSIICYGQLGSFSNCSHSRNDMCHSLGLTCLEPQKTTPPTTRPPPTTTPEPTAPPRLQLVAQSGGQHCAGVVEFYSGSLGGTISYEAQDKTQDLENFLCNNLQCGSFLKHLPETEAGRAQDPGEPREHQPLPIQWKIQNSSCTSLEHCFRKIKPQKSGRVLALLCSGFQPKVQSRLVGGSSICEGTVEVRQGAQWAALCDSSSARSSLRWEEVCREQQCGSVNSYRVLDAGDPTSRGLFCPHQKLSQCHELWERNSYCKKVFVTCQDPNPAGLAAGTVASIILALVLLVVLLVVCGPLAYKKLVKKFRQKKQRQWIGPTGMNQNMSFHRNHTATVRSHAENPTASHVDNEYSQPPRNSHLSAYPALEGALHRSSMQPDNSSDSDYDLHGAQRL

[2] = biological target: T1, human CD5 cell differentiation marker; experiment: cell-based or functional assay

| Binder | binding result [1] | IC50 (pMT), whole cell cytotoxicity, CEM Cells [2] [pMT] | IC50 (pMT), whole cell cytotoxicity, HSB2 Cells [2] [pMT] |
| --- | --- | --- | --- |
| B1 | binds | – | – |
| B2 | – | 173 | 165 |
| B3 | binds | – | – |
